Results taken from PMC12753105.

B1: T10 (ssDNA)
DNA: TTTTTTTTTT
B2: SL7 (structured_RNA)
RNA: ACGUGGCUUUGGAGACUCCGUGGAGGAGGUCUUAUCAGAGGCACGU

Assays:
N (ancestral) [1] = target: T1, N (ancestral) (SARS-CoV-2 (Wuhan-Hu-1), UniProt P0DTC9 1-419); test: SV-AUC; […], pH 7.50 ([…], pH 7.4; temperature not given; details: protein: recombinant; tags: 6xHis-TEV, cleaved; chain copies: 2; single strand
N (ancestral) [2] = target: T1, N (ancestral); test: SV-AUC, mass photometry; […], pH 7.50 ([…], pH 7.4; temperature not given; details: protein: recombinant; tags: 6xHis-TEV, cleaved; chain copies: 2; hairpin

Binder | binding result (N (ancestral) [1]) | binding result (N (ancestral) [2])
B1 | binds | 
B2 |  | binds
